Biological target: mare1_human MAPRE1 (UniProt Q15691)
Sequence (Q15691 whole entry): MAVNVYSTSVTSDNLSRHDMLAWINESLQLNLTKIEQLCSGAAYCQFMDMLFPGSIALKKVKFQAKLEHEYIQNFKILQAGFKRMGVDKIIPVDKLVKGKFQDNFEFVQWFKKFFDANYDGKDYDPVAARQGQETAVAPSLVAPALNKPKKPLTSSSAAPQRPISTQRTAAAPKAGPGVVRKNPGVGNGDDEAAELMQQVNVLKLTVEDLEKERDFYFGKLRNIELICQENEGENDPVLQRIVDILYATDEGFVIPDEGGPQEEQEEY

## Dystonin (Homo sapiens), Q03001 I7552N;P7553N
  effect of a mutation on the interaction: decreasing interaction
